Results: patent US20250101437, “[…] FOR […] VARIANTS OF A TARGET ANALYTE, METHODS OF MAKING AND USES […]” (McMaster University, published 2025)

What was measured:
[1] = biological target: OC43 spike RBD (Human coronavirus OC43, UniProt P36334 P36334:333-607); test: filter; dot blot; very weak binding; details: label: 5'-32P; four-way junction (proposed)
[2] = biological target: 229E spike RBD (Human coronavirus 229E, UniProt P15423 P15423:293-435); test: filter; dot blot; very weak binding; details: label: 5'-32P; four-way junction (proposed)
[3] = biological target: T1, SARS-CoV-2 spike S1 subunit, original Wuhan (SARS-CoV-2 (Wuhan), UniProt P0DTC2 P0DTC2:16-685); test: filter; dot blot; details: tags: Sino Biological 40591-V08B1; label: 5'-32P
[4] = biological target: SARS-CoV-2 spike trimer, original Wuhan (WHS) (SARS-CoV-2 (Wuhan-Hu-1), UniProt P0DTC2 P0DTC2:14-1213); test: filter; […]; binding buffer ([…], Mg, Tween-20, pH 7.4); details: tags: full-length trimeric spike, Expi293 cells, Ni-NTA purified; chain copies: 3 (stated trimeric); label: 5'-32P
[5] = biological target: SARS-CoV-2 spike (WH) on pseudotyped lentivirus (SARS-CoV-2 (Wuhan-Hu-1), UniProt P0DTC2 P0DTC2:14-1273); test: filter; details: protein: virion; tags: pseudotyped lentivirus, BEI NR-52948 kit; chain copies: 3; label: 5'-32P; four-way junction (proposed)
[6] = biological target: MERS-CoV spike RBD (MERS-CoV, UniProt K9N5Q8 K9N5Q8:367-606); test: filter; details: label: 5'-32P
[7] = biological target: SARS-CoV-1 spike protein (SARS-CoV-1, UniProt P59594 P59594:14-1195); test: filter; details: label: 5'-32P
[8] = biological target: SARS-CoV-1 spike RBD (SARS-CoV-1, UniProt P59594 P59594:306-527); test: filter; details: label: 5'-32P
[9] = biological target: Bovine serum albumin (Bos taurus, UniProt P02769 P02769:25-607); test: filter; 50 nM protein; details: tags: Sigma-Aldrich; label: 5'-32P; four-way junction (proposed)
[10] = biological target: alpha-thrombin (Homo sapiens, UniProt P00734;P00734 P00734:328-363,P00734:364-622); test: filter; 50 nM protein; details: tags: Sigma-Aldrich; label: 5'-32P; four-way junction (proposed)
[11] = biological target: NL63 spike RBD (Human coronavirus NL63, UniProt Q6Q1S2 Q6Q1S2:481-616); test: filter; 50 nM protein; details: label: 5'-32P; four-way junction (proposed)
[12] = biological target: T1, SARS-CoV-2 spike S1 subunit, original …; test: competition; details: tags: Sino Biological 40591-V08B1
[13] = biological target: SARS-CoV-2 spike S1 subunit, original Wuhan (SARS-CoV-2 (Wuhan), UniProt P0DTC2 P0DTC2:16-685); test: filter; dot blot; details: tags: Sino Biological 40591-V08B1, label: 5'-32P

229E spike RBD, sequence (P15423 293-435, one chain of several): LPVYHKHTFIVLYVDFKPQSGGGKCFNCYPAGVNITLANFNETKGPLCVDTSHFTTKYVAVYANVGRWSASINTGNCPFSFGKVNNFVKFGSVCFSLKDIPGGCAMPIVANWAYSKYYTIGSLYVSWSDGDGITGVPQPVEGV
NL63 spike RBD, sequence (Q6Q1S2 481-616, one chain of several): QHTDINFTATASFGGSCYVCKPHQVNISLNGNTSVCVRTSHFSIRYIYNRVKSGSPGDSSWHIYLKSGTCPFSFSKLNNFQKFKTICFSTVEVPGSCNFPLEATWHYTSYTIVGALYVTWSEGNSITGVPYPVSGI
Bovine serum albumin, sequence (P02769 25-607, one chain of several): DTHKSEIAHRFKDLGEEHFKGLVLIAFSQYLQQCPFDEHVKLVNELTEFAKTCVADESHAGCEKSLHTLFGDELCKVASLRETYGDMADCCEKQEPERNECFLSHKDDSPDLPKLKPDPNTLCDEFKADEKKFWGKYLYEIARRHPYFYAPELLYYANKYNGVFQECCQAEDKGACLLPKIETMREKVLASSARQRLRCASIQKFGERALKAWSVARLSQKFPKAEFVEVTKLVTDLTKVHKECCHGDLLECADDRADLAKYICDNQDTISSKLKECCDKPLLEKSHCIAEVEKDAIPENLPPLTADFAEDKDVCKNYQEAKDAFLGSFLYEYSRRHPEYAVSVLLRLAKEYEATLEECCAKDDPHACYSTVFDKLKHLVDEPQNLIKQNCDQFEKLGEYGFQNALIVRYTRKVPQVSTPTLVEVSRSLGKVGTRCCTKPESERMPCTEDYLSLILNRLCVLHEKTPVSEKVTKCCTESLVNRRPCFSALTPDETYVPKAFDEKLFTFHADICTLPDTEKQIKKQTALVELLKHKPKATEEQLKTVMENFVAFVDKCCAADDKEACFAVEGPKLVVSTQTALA
OC43 spike RBD, sequence (P36334 333-607, one chain of several): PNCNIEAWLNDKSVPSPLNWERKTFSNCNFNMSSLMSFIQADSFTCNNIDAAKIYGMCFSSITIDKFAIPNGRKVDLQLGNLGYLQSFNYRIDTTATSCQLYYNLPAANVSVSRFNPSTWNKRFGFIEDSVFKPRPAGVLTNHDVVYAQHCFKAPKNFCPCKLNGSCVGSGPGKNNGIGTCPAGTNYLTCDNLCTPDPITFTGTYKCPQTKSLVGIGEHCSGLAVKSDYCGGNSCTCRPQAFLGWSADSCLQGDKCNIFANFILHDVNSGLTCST

B1: MSA52 (ssDNA)
DNA: TTACGTCAAGGTGTCACTCCGTAGGGTTTGGCTCCGGGCCTGGCGTCGGTCGTCTCTCGCGAAGCATCTCTTTGGCGTG
Binder B1 has a Kd [1] greater than 200 nM, a Kd [2] greater than 200 nM and a Kd [3] of 6.6 nM. The Kd [4] was 3.6 nM, the Kd [5] was 0.0184 nM and the binding result [6] was “no binding”. The Kd [7] was greater than 150 nM, the binding result [8] was “no binding” and the binding result [9] was “no binding”. B1: no binding [10]; no binding [11].

B2: Mutant Control (MC, shuffled MSA52) (ssDNA)
DNA: TCTTTCGTGCCATCCTGCGGGTGGCTGTCCGAGGCTGGTGGCTCTGCAAGTGCCACGCTTTATCTGAGGTTCGCCGGTA
B2: no binding [12].

B3: MSA52-T1 (ssDNA)
DNA: TTACGTCAAGGTGTCATTGGCTCCGGGCCTGGCGTCGGTCGTCTCTCGCGAAGCATCTCTTTGGCGTG
In the case of B3, the Kd [13] is reported as 61.8 nM.

B4: MSA52-T2 (ssDNA)
DNA: TTACGTCAAGGTGTCACTCCGTAGGGTTTGCTGGCGTCGGTCGTCTCTCGCGAAGCATCTCTTTGGCGTG
B4 was tested, and the Kd [13] was 53.4 nM.

B5: MSA52-T3 (ssDNA)
DNA: TTACGTCAAGGTGTCACTCCGTAGGGTTTGGCTCCGGGCCTGGCATCTCTTTGGCGTG
B5 showed a Kd [13] of 94.8 nM.

B6: MSA52-T4 (ssDNA)
DNA: TTACGTCAAGGTGTCACTCCGTAGGGTTTGGCTCCGGGCCTGGCGTCGGTCGCGAAGCATCTCTTTGGCGTG
B6 gave a Kd [13] of 6 nM.

B7: MSA52-T5 (ssDNA)
DNA: ACGCCAAGGTGTCACTCCGTAGGGTTTGGCTCCGGGCCTGGCGTCGGTCGCGAAGCATCTCCTTGGCGT
B7 was tested, and the Kd ([13]; four-way junction (proposed)) was 5.5 nM.
